Results on four sequences are retold here after PMC6504816.

The target of the data set is T1, YlxR (Bacillus subtilis) (UniProt P32728).
T1 sequence: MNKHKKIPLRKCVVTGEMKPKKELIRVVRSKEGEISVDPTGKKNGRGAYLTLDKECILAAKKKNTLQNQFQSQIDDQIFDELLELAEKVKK
The data set is described as follows: EMSA. The following applies: 10 mM Tris-HCl pH 8.0, 100 mM KCl, 10 mM MgCl2, 1 mM DTT, 1 mM EDTA, 1 ug poly(dI-dC), 20 fmol probe in 20 ul, 15 min at 25 C; 6% native PAGE. Background: A gel shift assay detects complexes by their altered migration in electrophoresis.
On to “CTGGATGATATGGCAGAGTGGGTGTACCAAATTAAATAAAAGAACTATTTTTCTCTTTATACATTCACAGGCCGCCGAGATGTTCTCGACAGCCTTTTATTTTTGACTGCTGCGTGCAGACCCGCATCAAAAGAAATAATTTCAAAATCATTTGCTTCAG (double strand) [PtrmK [-295/-135] M1]”, for which the binding entry was “binds”.
Consider “CTGGATGATATGGCAGAGTGGGTGTCAAAAATTAAATAAAAGAACTATTTTTCTCTTTATACATTCACAGGCCGCCGAGATGTTCTCGACAGCCTTTTATTTTTGACTGCTGCGTGCAGACCCGCATCAAAAGAAATAATTTCAAAATCATTTGCTTCAG (double strand) [PtrmK [-295/-135] Wt]”, for which the binding result is reported as “binds”.
Consider “GGATATTCCAGCAAAATTCGATAAACTAGGAAGAGCACAAATAGGCATAAGCAGGGTTGAAAGGAGGTTTTGGTTC (double strand) [PthiL [-76/-1] Wt]”, for which the binding result is reported as “binds”.
Turning to “GGATATTCCATACCAATTCGATAAACTAGGAAGAGCACAAATAGGCATAAGCAGGGTTGAAAGGAGGTTTTGGTTC (double strand) [PthiL [-76/-1] M1]”, the binding entry is listed as “binds more weakly”.
